The target of the experiment is T1, IL-20RA/IL-20RB heterodimeric receptor (human, UniProt Q9UHF4 30-553; Q6UXL0 30-311).
T1 construct: Both subunits were co-expressed on transfected COS, BHK or BaF3 cells, or were endogenous on HaCaT keratinocytes; also called IL-20RB-IL-20RA heterodimer; IL-20 receptor
T1 sequence 1: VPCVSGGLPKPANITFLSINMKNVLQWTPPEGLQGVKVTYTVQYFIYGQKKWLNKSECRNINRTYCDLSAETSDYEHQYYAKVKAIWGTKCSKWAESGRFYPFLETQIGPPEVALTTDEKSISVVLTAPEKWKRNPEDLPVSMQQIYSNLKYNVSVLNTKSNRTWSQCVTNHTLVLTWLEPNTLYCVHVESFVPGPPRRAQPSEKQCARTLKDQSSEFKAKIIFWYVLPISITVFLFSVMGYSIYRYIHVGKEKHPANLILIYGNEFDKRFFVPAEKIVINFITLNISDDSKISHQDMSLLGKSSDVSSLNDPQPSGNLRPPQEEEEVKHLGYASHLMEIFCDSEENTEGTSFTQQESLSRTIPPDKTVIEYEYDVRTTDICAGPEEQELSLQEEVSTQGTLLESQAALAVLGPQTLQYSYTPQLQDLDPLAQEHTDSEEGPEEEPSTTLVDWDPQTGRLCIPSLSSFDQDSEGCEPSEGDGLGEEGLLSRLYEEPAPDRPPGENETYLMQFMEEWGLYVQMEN
T1 sequence 2: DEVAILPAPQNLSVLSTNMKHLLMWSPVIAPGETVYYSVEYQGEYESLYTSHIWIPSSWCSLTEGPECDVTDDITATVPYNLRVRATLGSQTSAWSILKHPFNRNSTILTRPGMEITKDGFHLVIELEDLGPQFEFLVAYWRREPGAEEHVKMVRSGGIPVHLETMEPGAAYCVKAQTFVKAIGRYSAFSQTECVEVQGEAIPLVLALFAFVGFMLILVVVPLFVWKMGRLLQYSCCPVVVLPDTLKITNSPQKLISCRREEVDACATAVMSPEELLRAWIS
The experiment in a line: 125I-labeled IL-20 binding to BHK cells stably transfected with IL-20RA and IL-20RB.

B1: IL-20 (Interleukin-20) (ligand, UniProt Q9NYY1 25-176, looked up)
chain: LKTLNLGSCVIATNLQEIRNGFSEIRGSVQAKDGNIDIRILRRTESLQDTKPANRCCLLRHLLRLYLDRVFKNYQTPDHYTLRKISSLANSFLTIKKDLRLCHAHMTCHCGEEAMKKYSQILSHFEKLEPQAAVVKALGELDILLQWMEETE
modifications: biotin-labeled in Example 3; 125I-labeled in Example 7; unlabeled in the functional assays
notes: also called Zcyto10; biotin-labeled IL-20 protein
The term Kd denotes a measure of binding affinity in units of concentration. Low values mean higher affinity, high ones lower affinity. Turning to B1, the Kd was approximately 1.5 nM.

(Values after patent EP1246846B1 (ZymoGenetics, Inc., dated 2008).)
